Measured values as given in patent US20220112288A1 (published 2022).
Residue numbers refer to the chain shown, from its start.

B1: 75110_01L08A (antibody, V domains shown)
VH: QVQLQESGPGLVKPSETLSLTCTVSGGSISHYYWSWIRQPPGKGLEWIGYIHYSGTTNYNPSLKSRVTISVDTSKNQLSLKLRSVTAADTAVYYCARDQGFSSGGMDVWGQGTTVTVSS
VL: not shown
notes: Tested as non-clonal hybridoma supernatant (AlivaMab Mouse Kappa), detected with anti-mouse Fc and anti-human kappa
B2: 75110_14G10A (antibody, V domains shown)
VH: EVQLVESGGGLVKPGGSLRLSCAASGFTFSSYSMNWVRQAPGKGLEWVSFISSSSSYIYYADSVKGRFTISRDNAKNSLYLQMNSLRAEDTAVYYCARERGDDYGDYEGAFDIWGQGTMVTVSS
VL: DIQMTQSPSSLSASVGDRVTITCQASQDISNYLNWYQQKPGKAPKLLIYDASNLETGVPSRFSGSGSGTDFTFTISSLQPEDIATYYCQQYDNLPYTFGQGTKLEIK
notes: Tested as non-clonal AlivaMab Mouse Kappa hybridoma supernatant (detected with anti-mouse Fc gamma and anti-human kappa)
B3: 75110_02N15A (antibody, V domains shown)
VH: EVQLVESGGGLVQPGGSLRLSCAASGFTFSSYWMSWVRQAPGKGLEWVANINEDGNEKYYVDSVKGRFTISRDNAKNSLFLQMNSLRAEDTAVYFCAREGGQWLALDHWGQGALVTVSS
VL: DIQMTQSPSSVSASVGDRVTITCRASQGISSWLAWYQQKPGKAPKFLISGASSLQSGVPSRFSGSGSGTDFTLTISSLQPEDFATYYCQQANSFPWTFGQGTKVEFK
notes: as for B2
B4: 75110_14P08A (antibody, V domains shown)
VH: QVQLQESGPGLVKSSETLSLTCTDSGDSIRSYYWNWIRQPAGKGLEWIGRIYASGSTNYNPSLKSRVIMSADTSKNRFSLKLSSVTAADTAVYYCARDGGVGDSLDYWGQGTLVTVSS
VL: DIVMTQTPLSLPVTPGEPASISCRSSQSLLDSDDGNTYLDWYLQKPGQSPQLLIYTLSYRASGVPDRFSGSGSGTDFTLKISRVEAEDVGVYYCMQRIEFPFTFGPGTKVDIK
notes: as for B2
B5: 75110_14N19A (antibody, V domains shown)
VH: QVQLQESGPGLVKPSETLSLTCTVSGGSISRYYWSWIRQPAGKGLEWIGRICTSENPNYNPALKSRVTMSVDTSKNQFSLKLSSVTAADTAVYYCARELERLNYYGMDVWGQGTTVTVSS
VL: DIQMTQFPSSLSASVGDRVTITCQASQDISNYLNWYQQKPGKAPKLLIYDASNLESGVPSRFSGRGSGTDFTFTISSLQPEDFATFYCQQYDTLPITFGQGTRLEIK
notes: as for B2
B6: 75110_10O16A (antibody, V domains shown)
VH: EVQLVESGGGLVQPGGSLRLSCAASGFTFSNSDMHWVRQATGKGLEWVSTIGTAGDTYYPGSVKGRFTISRENAKNSLYLQMNSLRAGDTAVYYCARGGLYYYGMDVWGQGTTVTVSS
VL: ENVLTQSPGTLSLSPGERATLSCRASQSVSSSYLAWYQQKPGQAPRLLIYGASSRATGIPDRFSGSGSGTDFTLTISRLEPEDFAVYYCHQFGSSPFTFGPGTKVDIK
notes: Tested as non-clonal AlivaMab Mouse Kappa hybridoma supernatant (detected with anti-mouse Fc gamma and anti-human kappa); also called 75110_10016A
B7: 75110_01E08A (antibody, V domains shown)
VH: B6 VH with S30N, S32Y, G61A, S70Y, L100D
VL: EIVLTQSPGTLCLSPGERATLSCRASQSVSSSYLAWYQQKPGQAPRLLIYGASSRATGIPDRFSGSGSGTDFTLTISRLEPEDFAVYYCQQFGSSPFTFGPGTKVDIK
notes: as for B2
B8: 75110_08K12A (antibody, V domains shown)
VH: B6 VH with N31S, S32Y, K75E, V92L, G99D, L100Y
VL: B6 VL with N2I, S32T, S54N, H90Q, S94T
notes: as for B2

Molecular target: T1, human CD4 on cells (SKW3 cells; human PBMCs) (human, UniProt P01730 26-458)
T1 construct: whole, on cells; SKW3 CD4 knockout cells served as the negative cell line for the WT vs KO ratios; also called hCD4; SKW3 WT
Assay: FACS confirmation, supernatant on human PBMCs, anti-mFc 647, CD4+ gate

In the case of B1, the “CD4+ gate RL1 Binding” value is reported as 200000.

Molecular target: T2, human CD4 on cells (SKW3 cells; human PBMCs) (human, UniProt P01730 26-458)
T2 construct: whole, on cells; SKW3 CD4 knockout cells served as the negative cell line in the primary screen; also called hCD4; huCD4
Assay: FACS primary screen, hybridoma supernatant, SKW3 vs SKW3 CD4 KO cells;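 further: flow cytometry on mixed SKW3 and dye-labeled SKW3 CD4 knockout cells after 30 min at 4 °C with supernatant, ratio of binding signal on parental versus knockout cells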

Point of comparison: B4, “SKW3 WT vs KO ratio, anti-hKappa-FITC” value 2.2. Against it:
- B2 — lower, 1.1
- B3 — lower, 2.1
- B5 — higher, 3.8
- B6 — lower, 1.3
- B7 — the same, 2.2
- B8 — lower, 1.7

Point of comparison: B3, “SKW3 WT vs KO ratio, anti-mFc-647” value 4.9. Against it:
- B2 — lower, 2.2
- B4 — higher, 6.7
- B5 — higher, 14.9
- B6 — lower, 2.4
- B7 — higher, 5.9
- B8 — lower, 4.7

Molecular target: T1, human CD4 on cells (SKW3 cells; human …)
Assay: FACS primary screen, non-clonal hybridoma supernatant; SKW3 WT vs SKW3 CD4 KO cells, anti-mFc-647

B1 was tested, and the “SKW3 WT vs KO anti-mFc-647” value was 4.3 fold.

Molecular target: T2, human CD4 on cells (SKW3 cells; human …)
Assay: FACS confirmation, supernatant on human PBMCs;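 further: flow cytometry with hybridoma supernatants incubated on human PBMCs for 30 min at 4 °C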

Point of comparison: B5, “PBMCs CD4+ gate RL1 binding, anti-mFc 647” value 277000. Against it:
- B2 — lower, 142000
- B3 — lower, 250000
- B4 — higher, 292000
- B6 — lower, 72100
- B7 — higher, 302000
- B8 — lower, 276000

Point of comparison: B4, “PBMCs CD4+ percent bound of viable” value 30%. Against it:
- B2 — higher, 32%
- B3 — lower, 27%
- B5 — lower, 29%
- B6 — lower, 23%
- B7 — lower, 29%
- B8 — lower, 29%

Molecular target: T1, human CD4 on cells (SKW3 cells; human …)
Assay: SKW3 FACS binning; competitor RPA-T4-PE-Dazzle 594 added after supernatant (background 783, max binding 15000)

With B1 the “RPA-T4-PE-Dazzle 594 signal in binning” value was 19800.

Molecular target: T2, human CD4 on cells (SKW3 cells; human …)
Assay: FACS confirmation, supernatant on SKW3 cells; background gMFI 2500

Point of comparison: B7, “gMFI on SKW3 WT, anti-hu Kappa FITC” value 6340 gMFI. Against it:
- B2 — lower, 3410 gMFI
- B3 — lower, 5000 gMFI
- B4 — lower, 5580 gMFI
- B5 — higher, 7640 gMFI
- B6 — lower, 3160 gMFI
- B8 — lower, 5300 gMFI

Molecular target: T1, human CD4 on cells (SKW3 cells; human …)
Assay: FACS confirmation, supernatant on SKW3 WT cells, anti-mFc 647 (Bkrd gMFI = 3300)

B1 was tested, and the gMFI was 18700 gMFI.

Molecular target: T1, human CD4 on cells (SKW3 cells; human …)
Assay: FACS confirmation, supernatant on SKW3 WT cells, anti-hu Kappa FITC (Bkrd gMFI = 2500)

Work on B1 yielded a gMFI of 5520 gMFI.

Molecular target: T2, human CD4 on cells (SKW3 cells; human …)
Assay: FACS binning on SKW3 cells; competitor OKT4a; background 5000, max binding 35000

Point of comparison: B4, “OKT4a signal (anti-hu A647) with supernatant” value 38400. Against it:
- B2 — higher, 41800
- B3 — higher, 42900
- B5 — lower, 29700
- B6 — lower, 34800
- B7 — higher, 43300
- B8 — higher, 39200

Molecular target: T1, human CD4 on cells (SKW3 cells; human …)
Assay: SKW3 FACS binning; competitor OKT4-A488 added after supernatant (background 2163, max binding 8200)

In the case of B1, the “OKT4 A488 signal in binning” value is reported as 9750.

Molecular target: T1, human CD4 on cells (SKW3 cells; human …)
Assay: FACS primary screen, non-clonal hybridoma supernatant; SKW3 WT vs SKW3 CD4 KO cells, anti-hKappa-FITC

With B1 the “SKW3 WT vs KO anti-hKappa-FITC” value was 2.6 fold.

Molecular target: T2, human CD4 on cells (SKW3 cells; human …)
Assay: FACS confirmation, supernatant on SKW3 cells; background gMFI 3300

Point of comparison: B8, “gMFI on SKW3 WT, anti-mFc 647” value 16600 gMFI. Against it:
- B2 — lower, 8910 gMFI
- B3 — lower, 15900 gMFI
- B4 — higher, 20300 gMFI
- B5 — higher, 28600 gMFI
- B6 — lower, 5460 gMFI
- B7 — higher, 22900 gMFI

Molecular target: T1, human CD4 on cells (SKW3 cells; human …)
Assay: SKW3 FACS binning; competitor OKT4a added after supernatant, anti-hu A647 secondary (background 5000, max binding 35000)

With B1 the “OKT4a anti-hu A647 signal in binning” value was 9030.

Molecular target: T1, human CD4 on cells (SKW3 cells; human …)
Assay: FACS confirmation, supernatant on human PBMCs, anti-mFc 647, percent of viable cells

For B1, the “CD4+ Percent Bound of Viable” value was 27%.

Molecular target: T3, huCD4-HIS (human, UniProt P01730 26-390, limits assumed)
T3 construct: Named only in the head of the ELISA binning column; not shown: HIS tag
Assay: ELISA binning; competitor Ibalizumab, 100 ng/mL huCD4-HIS, anti-HIS HRP detection (background 45, max binding 3000000)

With B1 the “Ibalizumab ELISA binning signal” value was 58200.

Molecular target: T2, human CD4 on cells (SKW3 cells; human …)
Assay: FACS binning on SKW3 cells; competitor RPA-T4-PE-Dazzle 594; background 783, max binding 15000

Point of comparison: B8, “RPA-T4-PE-Dazzle 594 signal with supernatant” value 16000. Against it:
- B2 — lower, 10100
- B3 — lower, 14200
- B4 — higher, 16400
- B5 — higher, 16600
- B6 — lower, 15300
- B7 — lower, 14400

Molecular target: T4, huCD4-HIS (human, UniProt P01730 26-390, limits assumed)
T4 construct: the ELISA is not described in the text of this stretch; also called human CD4-HIS
Assay: ELISA binning; competitor ibalizumab; 100 ng/mL huCD4-HIS, anti-HIS HRP; background 45, max binding 3000000

Point of comparison: B5, “Ibalizumab ELISA binning signal” value 1.28e+06. Against it:
- B2 — lower, 1.21e+06
- B3 — higher, 1.98e+06
- B4 — higher, 2.2e+06
- B6 — higher, 2.37e+06
- B7 — higher, 1.84e+06
- B8 — higher, 1.98e+06

Molecular target: T2, human CD4 on cells (SKW3 cells; human …)
Assay: FACS binning on SKW3 cells; competitor OKT4-A488; background 2163, max binding 8200

Point of comparison: B5, “OKT4-A488 signal with supernatant” value 9080. Against it:
- B2 — lower, 8720
- B3 — lower, 3020
- B4 — higher, 9100
- B6 — lower, 8260
- B7 — lower, 3330
- B8 — lower, 8660
